Like-named read-outs stand apart in the source and are kept apart here.
Legend:
[1] = molecular target: MPER peptide PDT-081 (HIV-1); assay: BLI on PDT-081
[2] = molecular target: MPER peptide PDT-081 (HIV-1)
[3] = molecular target: MPER peptide PDT-081 (HIV-1); assay: ELISA on PDT-081
[4] = molecular target: MPER peptide PDT-081 (HIV-1); assay: BLI (Octet RED96), Fab over biotinylated peptide on streptavidin sensors
[5] = molecular target: MPER peptide PDT-081 (HIV-1); assay: ELISA on MPER (654-683) peptide, antibody titrated

Binder | Kd [1] | koff [1] | kon [1] | Kd [2] | EC50 [3] | Fold Increase (ELISA EC50 over H4K3) [3] | other results
H4K3_RS73PE Fab (Fab, V domains shown) VH: KVQLVQSGAELKKPWSSVRVSCKASGGSFSSYAFNWVRQAPGQRLEWLGGIVPLVSSTNYAQRFRGRVTISADPETSTVYLEMTGLTSADTAVYFCAREGEGWFGRPLRAFEFWGQGTLVTVST VL: EIVLTQSPGTFALSPGERATLSCRASQSVSGGALAWYQQKAGQAPRLLIYDTSGRATGVPGRFSGSGSETDFSLTISRLEPEDFAVYYCQQYGTSQSTFGQGTRLETR | 12.8 nM | 0.00051 s⁻¹ | 39000 M⁻¹ s⁻¹ | 12.8 nM |  |  | 
H4K3_SFS28EPE Fab (Fab, V domains shown) VH: KVQLVQSGAELKKPWSSVRVSCKASGGEPESYAFNWVRQAPGQRLEWLGGIVPLVSSTNYAQRFRGRVTISADRSTSTVYLEMTGLTSADTAVYFCAREGEGWFGRPLRAFEFWGQGTLVTVST VL: EIVLTQSPGTFALSPGERATLSCRASQSVSGGALAWYQQKAGQAPRLLIYDTSGRATGVPGRFSGSGSETDFSLTISRLEPEDFAVYYCQQYGTSQSTFGQGTRLETR | 15.1 nM | 0.00054 s⁻¹ | 36000 M⁻¹ s⁻¹ | 15.1 nM |  |  | 
H4K3_5M (antibody, V domains shown) VH: KVQLVQSGAELKKPWSSVRVSCKASGGEPESYAFNWVRQAPGQRLEWLGGIVPLVSSTNYAQRFRGRVTISADPETSTVYLEMTGLTSADTAVYFCAREGEGWFGRPLRAFEFWGQGTLVTVST VL: EIVLTQSPGTFALSPGERATLSCRASQSVSGGALAWYQQKAGQAPRLLIYDTSGRATGVPGRFSGSGSETDFSLTISRLEPEDFAVYYCQQYGTSQSTFGQGTRLETR |  |  |  |  | 0.083 µg/mL | 2.1 fold | 
H4K3_RS73PE (antibody, V domains shown) VH: KVQLVQSGAELKKPWSSVRVSCKASGGSFSSYAFNWVRQAPGQRLEWLGGIVPLVSSTNYAQRFRGRVTISADPETSTVYLEMTGLTSADTAVYFCAREGEGWFGRPLRAFEFWGQGTLVTVST VL: EIVLTQSPGTFALSPGERATLSCRASQSVSGGALAWYQQKAGQAPRLLIYDTSGRATGVPGRFSGSGSETDFSLTISRLEPEDFAVYYCQQYGTSQSTFGQGTRLETR |  |  |  |  | 0.09 µg/mL | 2.3 fold | 
H4K3_SFS28EPE (antibody, V domains shown) VH: KVQLVQSGAELKKPWSSVRVSCKASGGEPESYAFNWVRQAPGQRLEWLGGIVPLVSSTNYAQRFRGRVTISADRSTSTVYLEMTGLTSADTAVYFCAREGEGWFGRPLRAFEFWGQGTLVTVST VL: EIVLTQSPGTFALSPGERATLSCRASQSVSGGALAWYQQKAGQAPRLLIYDTSGRATGVPGRFSGSGSETDFSLTISRLEPEDFAVYYCQQYGTSQSTFGQGTRLETR |  |  |  |  | 0.076 µg/mL | 2 fold | 
PGZL1.H4K3 (antibody, V domains shown) VH: KVQLVQSGAELKKPWSSVRVSCKASGGSFSSYAFNWVRQAPGQRLEWLGGIVPLVSSTNYAQRFRGRVTISADRSTSTVYLEMTGLTSADTAVYFCAREGEGWFGRPLRAFEFWGQGTLVTVST VL: EIVLTQSPGTFALSPGERATLSCRASQSVSGGALAWYQQKAGQAPRLLIYGTSGRATGVPGRFSGSGSETDFSLTISRLEPEDFAVYYCQQYGTSQSTFGQGTRLETR |  |  |  |  | 0.039 µg/mL |  | 
PGZL1.H4K3 Fab (Fab, V domains shown) VH: KVQLVQSGAELKKPWSSVRVSCKASGGSFSSYAFNWVRQAPGQRLEWLGGIVPLVSSTNYAQRFRGRVTISADRSTSTVYLEMTGLTSADTAVYFCAREGEGWFGRPLRAFEFWGQGTLVTVST VL: EIVLTQSPGTFALSPGERATLSCRASQSVSGGALAWYQQKAGQAPRLLIYGTSGRATGVPGRFSGSGSETDFSLTISRLEPEDFAVYYCQQYGTSQSTFGQGTRLETR |  | 0.00051 s⁻¹ | 68000 M⁻¹ s⁻¹ |  |  |  | Kd [4]: 7.5 nM; off rate faster than that of PGZL1 [4]: 8%; on rate faster than that of PGZL1 [4]: 24%
H4K3_5M Fab (Fab, V domains shown) VH: KVQLVQSGAELKKPWSSVRVSCKASGGEPESYAFNWVRQAPGQRLEWLGGIVPLVSSTNYAQRFRGRVTISADPETSTVYLEMTGLTSADTAVYFCAREGEGWFGRPLRAFEFWGQGTLVTVST VL: EIVLTQSPGTFALSPGERATLSCRASQSVSGGALAWYQQKAGQAPRLLIYDTSGRATGVPGRFSGSGSETDFSLTISRLEPEDFAVYYCQQYGTSQSTFGQGTRLETR | 23.4 nM | 0.00067 s⁻¹ | 29000 M⁻¹ s⁻¹ | 23.4 nM |  |  | 
PGZL1 (antibody, V domains shown) VH: EVQLVQSGGEVKRPGSSVTVSCKATGGTFSTLAFNWVRQAPGQGPEWMGGIVPLFSIVNYGQKFQGRLTIRADKSTTTVFLDLSGLTSADTATYYCAREGEGWFGKPLRAFEFWGQGTVITVSS VL: DVVMTQSPGTLSLSPGERATLSCRASQSVSGGALAWYQQKPGQAPRLLIYDTSSRPTGVPGRFSGSGSGTDFSLTISRLEPEDFAVYYCQQYGTSQSTFGQGTRLEIK |  |  |  |  |  |  | EC50 (read off the curve) [5]: 0.02 µg/mL
PGZL1 Fab (Fab, V domains shown) VH: EVQLVQSGGEVKRPGSSVTVSCKATGGTFSTLAFNWVRQAPGQGPEWMGGIVPLFSIVNYGQKFQGRLTIRADKSTTTVFLDLSGLTSADTATYYCAREGEGWFGKPLRAFEFWGQGTVITVSS VL: DVVMTQSPGTLSLSPGERATLSCRASQSVSGGALAWYQQKPGQAPRLLIYDTSSRPTGVPGRFSGSGSGTDFSLTISRLEPEDFAVYYCQQYGTSQSTFGQGTRLEIK |  |  |  |  |  |  | Kd [4]: 9.9 nM

Source: patent US20240124560A1
